± gives the uncertainty stated by the source.
experiment: protein stability index of a GFP-peptide fusion (yeast GPS) (PSI 1-4); higher = more stable; sorted into four equal gates, so the index is relative within each strain; conditions: pdr5∆
How it was run: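 Plasmids isolated from each sorting gate were PCR-amplified and Illumina-sequenced, and barcodes assigned the reads to strains. The gates, four of equal size, were set by GFP/Cherry fluorescence ratio on mid-log cultures in leucine-free medium. These cultures were yeast carrying a pooled library of tiled 17-residue yeast protein peptides fused downstream of GFP on a plasmid that also expresses Cherry. The protein stability index is the sum of every gate's read frequency times its gate number.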

Sequence	protein stability index
VMFATNRPNTLDPALLR [RPT1]	3.05 ± 0.079
VMIAEIPTLAIDSVEVE [RPB3]	2.65 ± 0.11
VMLRLLLVVIFKKTLRS [SRB4]	1.56 ± 0.057
VMTISSLEQRTLNPDLF [RPC82]	3.1 ± 0.28
VNCFHEDTELYQELIKN [YJL039C/NUP192]	2.82 ± 0.16
VNEDPIFHPMIHYSWSF [YML103C/NUP188]	2.46 ± 0.039
VNEIMYKCTAAMEKYLL [MTW1]	2.44 ± 0.06
VNIHHLLNEYRPHQSRE [MED7]	2.4 ± 0.16
VNIPSFMVRLDSEKHID [RPS9A]	2.64 ± 0.051
VNISAVDNTTEQSNSRK [YCG1]	2.35 ± 0.28
VNKYGLRADKLYEKLKQ [ISW2]	1.5 ± 0.11
VNNPQEETSHLLTVTPG [RPN10]	2.84 ± 0.08
VNNRDSEKGFSKEQIHG [YCS4]	3.49 ± 0.18
VNVEKFNVEYFAKEKLT [RPL6A]	1.96 ± 0.044
VPATAAPGTEAGIVPVS [SWI1]	3 ± 0.084
VPHYNRLDSYKVIEQPI [RPL25]	2.21 ± 0.11
VPMKEENLEESFLSKHA [SSN2]	3.69 ± 0.14
VPNSIGNIFSNIGTPSF [SNF5]	2.6 ± 0.1
VPPMKLAYSKIVNGQTF [YMR129W/POM152]	1.48 ± 0.072
VPPPPVRPSISFNESQR [RPO21]	2.78 ± 0.036
VPQTEEARAEAINLMGV [RPO31]	2.97 ± 0.1
VPRAALEERFDPKSPTK [YMR129W/POM152]	3.09 ± 0.064
VPSTTNVNMTVNTMGTG [MED6]	3.37 ± 0.11
VPVANQFINLAGYKKLG [QCR7]	2.5 ± 0.13
VPVRKFKGNNGVVVLRD [RPN2]	2.88 ± 0.18
VQESGNIDYQKGLLIWR [GRR1]	3.13 ± 0.1

Sequence	protein stability index
VQGLLQNAAANAEAKGL [RPL17A]	2.76 ± 0.1
VQVRSVMDPITSKRKAE [DIS3]	2.41 ± 0.13
VRELFEMARTKKACIIF [RPT1]	1.29 ± 0.11
VRELGILCIFEGEKCHP [SEC65]	2.43 ± 0.064
VRILRLITTNSVEEVIL [SNF2]	2.12 ± 0.06
VRLRSNVIKTGIRIISL [RPN3]	2.35 ± 0.14
VRTHMRNMIIVPEMIGS [RPS15]	1.47 ± 0.06
VRTNTLTKAAIVQIDAT [RPS8A]	2.54 ± 0.023
VSEITKLKFFPSGEALI [RPN14]	2.76 ± 0.069
VSFYFEDGTIESYNQND [SIN4]	2.34 ± 0.1
VSKEGLYQLVDIRDSSC [YMR129W/POM152]	2.92 ± 0.084
VSKKWAAAAVCEKWAAS [RPL14A]	3.04 ± 0.15
VSLGTSIMAVTFKDGVI [PRE3]	3.12 ± 0.18
VSMYQNSSTSSTSNTPS [YDL088C/ASM4]	2.6 ± 0.064
VSNNEANTPSIPTNPVD [SWI3]	3.2 ± 0.09
VSPAFRVQVGDIVTVGQ [RPS11A]	2.96 ± 0.093
VSQQPLSRGYTCPGLSL [ECM29]	2.97 ± 0.04
VSSSLYERRFGPYFVGP [PUP3]	2.88 ± 0.16
VSTAKFSGKYLKYLTKK [RPL22A]	3.29 ± 0.11
VTDKYTAKKTNRSAYDS [YDL088C/ASM4]	3.26 ± 0.081
VTDNKTPEMNVTNNVEE [TAF14]	3.27 ± 0.12
VTDSSLLKLLTRLVQLR [GRR1]	1.7 ± 0.056
VTEMSNNANVLGGEIND [BRR2]	3.18 ± 0.12
VTFIFGELKRGNESVKP [MED11]	3.12 ± 0.077
VTKDLKLRREDEIIVYA [REC8]	2.73 ± 0.05
VTKGGTVENPLRNWEEL [PRP28]	2.71 ± 0.1

Sequence	protein stability index
VTMGAKDKLREFIPHST [RPN6]	3.1 ± 0.14
VTPNDKIPEREEKSNEV [SIR4]	3.16 ± 0.24
VTRIINSSEIQSAIRPA [RPL4A]	2.54 ± 0.12
VTSKVRNAEFKVSKNST [YMR153W/NUP53]	3.49 ± 0.19
VTVDADIDDILKKGEQK [ISW2]	2.76 ± 0.07
VTVEQLRSIYHQFHDIL [NSL1]	1.9 ± 0.073
VTWRTFTGDFLRRVEER [FAS1]	1.78 ± 0.096
VVERHLEDGDVVLFNRQ [RPO31]	3.32 ± 0.077
VVFTRLVQRCWQWGNDR [CSN12]	1.4 ± 0.08
VVGQLFQIDNDNIRYAT [SMC2]	2.67 ± 0.066
VVSTDLESIQKTKEAVA [RPL4A]	3.12 ± 0.083
VVTMSVKSVNDPSQNRL [RPC37]	2.56 ± 0.27
VYAQQSTVQTPITASMA [PGD1]	1.95 ± 0.079
VYDIMALEDEERDEILT [BRR2]	3.28 ± 0.15
VYSFDPVGSYEREQCRA [PRE7]	3.47 ± 0.23
VYVTGGRNLGRIGTIVH [RPS4A]	2.8 ± 0.18
WAEHLSDEVKRRFYKNW [RPL3]	2.9 ± 0.25
WCAGAGTAADTEAVTQL [PUP1]	2.94 ± 0.23
WCQEAFPSSETTSLNPI [BRR2]	3.33 ± 0.097
WEISNPDFLSKYSAITS [NUT1]	2.06 ± 0.044
WFCPCHGSHYDISGRIR [RIP1]	2.31 ± 0.18
WFLDHNYIENMNEMCKK [RPN8]	3.26 ± 0.12
WGEQKKAMSSRAGVSQV [RPB2]	3.17 ± 0.099
WGIPLIKELRSKGYPIQ [FAS1]	2.75 ± 0.091
WGMEPLEDYVPHQSPDA [RPB2]	3.3 ± 0.13
WGYQMVWAPTQKCFKLT [POP1]	2.62 ± 0.068

Sequence	protein stability index
WHIEETGEWFSSYEEFL [ITC1]	2.63 ± 0.077
WKFKSLIEILRLRALQL [RRI2]	1.21 ± 0.075
WKIPQNDIPQTESPLKT [SSN2]	2.23 ± 0.058
WLAAATATGIKVFSLDP [ASC1]	2.69 ± 0.045
WLLHNGFSTGIGDTIAD [RPO21]	3.24 ± 0.17
WLYVYETPNQDATYDSA [RPN6]	2.75 ± 0.067
WNLNATKPNVLNDPSLK [SIN4]	2.94 ± 0.071
WNSLMYALQSVKLPRAF [RRP43]	1.34 ± 0.083
WNWAKQSLLSLYFEIIH [FAS2]	1.46 ± 0.057
WRSKRIEQLFPVRPVRV [RPC53]	3.11 ± 0.087
WSFEEVEVKDASLVDYV [RPS5]	1.14 ± 0.06
WSSLLNEGLVEYIDAEE [RPB2]	3.44 ± 0.17
WVNMLLISSSGPIKTPV [FAS2]	1.32 ± 0.051
WVTEVLGNDIPHDLIIG [BRR2]	2.95 ± 0.056
YALQSVKLPRAFIDERA [RRP43]	1.33 ± 0.17
YASKAVPHYNRLDSYKV [RPL25]	2.7 ± 0.1
YDDEQNTSAQHVESDKI [IRR1]	3.04 ± 0.053
YDEVKKHWGGGILGNKA [RPL8A]	3.4 ± 0.089
YDLVDNKGAKAEDVALN [NAS6]	3.39 ± 0.27
YDNIDIQRGRILPTDGS [RPB7]	3.06 ± 0.18
YDSRGVGEMKLLKKKDD [YLR335W/NUP2]	2.64 ± 0.17
YDSRPLEEDSKKVNGTS [PRP8]	3.53 ± 0.17
YEAGASHGNPVVDFLKR [FAS1]	3.13 ± 0.099

From the supplement of paper PMC9732359
